Measurements reported in patent US20190040102A1 (CDRD VENTURES, published 2019).
Starred links: 1 amine or outer side, 2 acyl side, 3 side chain; linkers in the order of their positions; H or OH if unused. Positions of bridges follow the written chain, without caps; N, C: chain ends. Non-standard residues stand in square brackets, D forms with d. *: point of attachment. dPhe(4-phenylureido) = D-4-(phenylureido)Phe, O=C(Nc1ccccc1)Nc1ccc(C[C@@H](N[*:1])C(=O)[*:2])cc1; thiocarbamate = -NH-(C=O)-S- bridge between side chains (disulfide isostere); dPhe(4-CONH2) = NC(=O)c1ccc(C[C@@H](N)C(=O)O)cc1; NMePhe(4-Cl) = CN[C@@H](Cc1ccc(Cl)cc1)C(=O)O; Phe(4-Cl) = N[C@@H](Cc1ccc(Cl)cc1)C(=O)O; NMeY = CN[C@@H](Cc1ccc(O)cc1)C(=O)O; dNMeY = CN[C@H](Cc1ccc(O)cc1)C(=O)O; NMeT = CN[C@H](C(=O)O)[C@@H](C)O; NMeC = CN[C@@H](CS)C(=O)O; dNMeC = CN[C@H](CS)C(=O)O; dDap = NC[C@@H](N)C(=O)O; Dap = NC[C@H](N)C(=O)O; Hexanoyl = CCCCCC(=O)*

B1: Compound 55: Ac-Gly-Cpa-cyclo[D-Cys-Tyr-D-Phe(4-carbamoyl)-Lys(Nε-Me)-Thr-Cys]-D-Tyr-NH2 (peptide)
peptide: Ac-G[Phe(4-Cl)][dC]Y[dPhe(4-CONH2)]K(Me)TC[dY]-NH2
modifications: disulfide 3-8
SMILES: CNCCCC[C@@H]1NC(=O)[C@@H](Cc2ccc(C(N)=O)cc2)NC(=O)[C@H](Cc2ccc(O)cc2)NC(=O)[C@H](NC(=O)[C@H](Cc2ccc(Cl)cc2)NC(=O)CNC(C)=O)CSSC[C@@H](C(=O)N[C@H](Cc2ccc(O)cc2)C(N)=O)NC(=O)[C@H]([C@@H](C)O)NC1=O
B2: Compound 73: H-Cpa-[DCys-Tyr-DPhe(4-carbamoyl)-Lys-NMeThr-Cys]-DTyr-NH2 (peptide)
peptide: XXYXKXCX
HELM: PEPTIDE1{[N[C@@H](Cc1ccc(Cl)cc1)C(=O)[*:2]].[dC].Y.[NC(=O)c1ccc(C[C@@H](N[*:1])C(=O)[*:2])cc1].K.[meT].C.[dY].[am]}$PEPTIDE1,PEPTIDE1,2:R3-7:R3$$$V2.0
SMILES: C[C@@H](O)[C@H]1C(=O)N[C@H](C(=O)N[C@H](Cc2ccc(O)cc2)C(N)=O)CSSC[C@@H](NC(=O)[C@@H](N)Cc2ccc(Cl)cc2)C(=O)N[C@@H](Cc2ccc(O)cc2)C(=O)N[C@H](Cc2ccc(C(N)=O)cc2)C(=O)N[C@@H](CCCCN)C(=O)N1C
B3: Compound 80: H-NMeCpa-[DCys-NMeTyr-DPhe(4-carbamoyl)-Lys-NMeThr-Cys]-NMeDTyr-NH2 (peptide)
peptide: H-[NMePhe(4-Cl)][dC][NMeY][dPhe(4-CONH2)]K[NMeT]C[dNMeY]-NH2
modifications: disulfide 2-7
SMILES: CN[C@@H](Cc1ccc(Cl)cc1)C(=O)N[C@@H]1CSSC[C@@H](C(=O)N(C)[C@H](Cc2ccc(O)cc2)C(N)=O)NC(=O)[C@H]([C@@H](C)O)N(C)C(=O)[C@H](CCCCN)NC(=O)[C@@H](Cc2ccc(C(N)=O)cc2)NC(=O)[C@H](Cc2ccc(O)cc2)N(C)C1=O
B4: Compound 25: H-Cpa-cyclo[D-Cys-Tyr-D-Phe(4-phenylureido)-Lys(Nε-Me)-Thr-Cys]-D-Tyr-NH2 (peptide)
peptide: H-[Phe(4-Cl)][dC]Y[dPhe(4-phenylureido)]K(Me)TC[dY]-NH2
modifications: disulfide 2-7
SMILES: CNCCCC[C@@H]1NC(=O)[C@@H](Cc2ccc(NC(=O)Nc3ccccc3)cc2)NC(=O)[C@H](Cc2ccc(O)cc2)NC(=O)[C@H](NC(=O)[C@@H](N)Cc2ccc(Cl)cc2)CSSC[C@@H](C(=O)N[C@H](Cc2ccc(O)cc2)C(N)=O)NC(=O)[C@H]([C@@H](C)O)NC1=O
B5: Compound 70: H-Cpa-cyclo[DDap-Tyr-Xaa4-Lys-Thr-Asp]-DTyr-NH2 (peptide)
peptide: H-[Phe(4-Cl)][dDap]Y[dPhe(4-phenylureido)]KTD[dY]-NH2
modifications: lactam 2-7; not fully specified; printed as H-Cpa-cyclo[DDap-Tyr-Xaa4-Lys-Thr-Asp]-DTyr-NH2
B6: Compound 72: H-Cpa-cyclo[DCys-Tyr-D-(4-carbamoyl)Phe-(N-alpha-Me)Lys-Thr-Cys]-DTyr-NH2 (peptide)
peptide: XXYXXTCX
HELM: PEPTIDE1{[N[C@@H](Cc1ccc(Cl)cc1)C(=O)[*:2]].[dC].Y.[NC(=O)c1ccc(C[C@@H](N[*:1])C(=O)[*:2])cc1].[meK].T.C.[dY].[am]}$PEPTIDE1,PEPTIDE1,2:R3-7:R3$$$V2.0
SMILES: C[C@@H](O)[C@@H]1NC(=O)[C@H](CCCCN)N(C)C(=O)[C@@H](Cc2ccc(C(N)=O)cc2)NC(=O)[C@H](Cc2ccc(O)cc2)NC(=O)[C@H](NC(=O)[C@@H](N)Cc2ccc(Cl)cc2)CSSC[C@@H](C(=O)N[C@H](Cc2ccc(O)cc2)C(N)=O)NC1=O
B7: Compound 76: H-Cpa-[DCys-Tyr-DPhe(4-carbamoyl)-Lys-Thr-NMeCys]-DTyr-NH2 (peptide)
peptide: H-[Phe(4-Cl)][dC]Y[dPhe(4-CONH2)]KT[NMeC][dY]-NH2
modifications: disulfide 2-7
SMILES: C[C@@H](O)[C@@H]1NC(=O)[C@H](CCCCN)NC(=O)[C@@H](Cc2ccc(C(N)=O)cc2)NC(=O)[C@H](Cc2ccc(O)cc2)NC(=O)[C@H](NC(=O)[C@@H](N)Cc2ccc(Cl)cc2)CSSC[C@@H](C(=O)N[C@H](Cc2ccc(O)cc2)C(N)=O)N(C)C1=O
B8: Compound 71: H-Cpa-cyclo[DDap-Tyr-DPhe(4-CONH2)-Lys(Me)-Thr-Asp]-DTyr-NH2 (peptide)
peptide: H-[Phe(4-Cl)][dDap]Y[dPhe(4-CONH2)]K(Me)TD[dY]-NH2
modifications: lactam 2-7; not fully specified; printed as H-Cpa-cyclo[DDap-Tyr-DPhe(4-CONH2)-Lys(Me)-Thr-Asp]-DTyr-NH2
B9: Compound 77: H-(N-Me)Cpa-cyclo[D-Cys-Tyr-D-Phe(4-carbamoyl)-Lys-Thr-Cys]-D-Tyr-NH2 (peptide)
peptide: XXYXKTCX
HELM: PEPTIDE1{[CN[C@@H](Cc1ccc(Cl)cc1)C(=O)[*:2]].[dC].Y.[NC(=O)c1ccc(C[C@@H](N[*:1])C(=O)[*:2])cc1].K.T.C.[dY].[am]}$PEPTIDE1,PEPTIDE1,2:R3-7:R3$$$V2.0
SMILES: CN[C@@H](Cc1ccc(Cl)cc1)C(=O)N[C@@H]1CSSC[C@@H](C(=O)N[C@H](Cc2ccc(O)cc2)C(N)=O)NC(=O)[C@H]([C@@H](C)O)NC(=O)[C@H](CCCCN)NC(=O)[C@@H](Cc2ccc(C(N)=O)cc2)NC(=O)[C@H](Cc2ccc(O)cc2)NC1=O
B10: Compound 78: H-Cpa-[NMeDCys-Tyr-DPhe(4-carbamoyl)-Lys-Thr-Cys]-DTyr-NH2 (peptide)
peptide: H-[Phe(4-Cl)][dNMeC]Y[dPhe(4-CONH2)]KTC[dY]-NH2
modifications: disulfide 2-7
SMILES: C[C@@H](O)[C@@H]1NC(=O)[C@H](CCCCN)NC(=O)[C@@H](Cc2ccc(C(N)=O)cc2)NC(=O)[C@H](Cc2ccc(O)cc2)NC(=O)[C@H](N(C)C(=O)[C@@H](N)Cc2ccc(Cl)cc2)CSSC[C@@H](C(=O)N[C@H](Cc2ccc(O)cc2)C(N)=O)NC1=O
B11: Compound 69: H-Cpa-cyclo[DDap-Tyr-DPhe(4-CONH2)-Lys-Thr-Asp]-DTyr-NH2 (peptide)
peptide: H-[Phe(4-Cl)][dDap]Y[dPhe(4-CONH2)]KTD[dY]-NH2
modifications: lactam 2-7; not fully specified; printed as H-Cpa-cyclo[DDap-Tyr-DPhe(4-CONH2)-Lys-Thr-Asp]-DTyr-NH2
B12: Compound 59: H-Cpa-[DCys-Tyr-DPhe(4-CN)-Lys-Thr-Cys]-DTyr-NH2 (peptide)
peptide: XXYXKTCX
HELM: PEPTIDE1{[N[C@@H](Cc1ccc(Cl)cc1)C(=O)[*:2]].[dC].Y.[N#Cc1ccc(C[C@@H](N[*:1])C(=O)[*:2])cc1].K.T.C.[dY].[am]}$PEPTIDE1,PEPTIDE1,2:R3-7:R3$$$V2.0
SMILES: C[C@@H](O)[C@@H]1NC(=O)[C@H](CCCCN)NC(=O)[C@@H](Cc2ccc(C#N)cc2)NC(=O)[C@H](Cc2ccc(O)cc2)NC(=O)[C@H](NC(=O)[C@@H](N)Cc2ccc(Cl)cc2)CSSC[C@@H](C(=O)N[C@H](Cc2ccc(O)cc2)C(N)=O)NC1=O
B13: Compound 74: H-Cpa-[DCys-NMeTyr-DPhe(4-carbamoyl)-Lys-Thr-Cys]-DTyr-NH2 (peptide)
peptide: XXXXKTCX
HELM: PEPTIDE1{[N[C@@H](Cc1ccc(Cl)cc1)C(=O)[*:2]].[dC].[meY].[NC(=O)c1ccc(C[C@@H](N[*:1])C(=O)[*:2])cc1].K.T.C.[dY].[am]}$PEPTIDE1,PEPTIDE1,2:R3-7:R3$$$V2.0
SMILES: C[C@@H](O)[C@@H]1NC(=O)[C@H](CCCCN)NC(=O)[C@@H](Cc2ccc(C(N)=O)cc2)NC(=O)[C@H](Cc2ccc(O)cc2)N(C)C(=O)[C@H](NC(=O)[C@@H](N)Cc2ccc(Cl)cc2)CSSC[C@@H](C(=O)N[C@H](Cc2ccc(O)cc2)C(N)=O)NC1=O
B14: Compound 56: CH3(CH2)4(CO)-Cpa-cyclo[D-Cys-Tyr-D-Phe(4-carbamoyl)-Lys(Nε-Me)-Thr-Cys]-D-Tyr-NH2 (peptide)
peptide: Hexanoyl-[Phe(4-Cl)][dC]Y[dPhe(4-CONH2)]K(Me)TC[dY]-NH2
modifications: disulfide 2-7
SMILES: CCCCCC(=O)N[C@@H](Cc1ccc(Cl)cc1)C(=O)N[C@@H]1CSSC[C@@H](C(=O)N[C@H](Cc2ccc(O)cc2)C(N)=O)NC(=O)[C@H]([C@@H](C)O)NC(=O)[C@H](CCCCNC)NC(=O)[C@@H](Cc2ccc(C(N)=O)cc2)NC(=O)[C@H](Cc2ccc(O)cc2)NC1=O
B15: Compound 79: H-Cpa-[DCys-Tyr-DPhe(4-carbamoyl)-Lys-Thr-Cys]-NMeDTyr-NH2 (peptide)
peptide: H-[Phe(4-Cl)][dC]Y[dPhe(4-CONH2)]KTC[dNMeY]-NH2
modifications: disulfide 2-7
SMILES: C[C@@H](O)[C@@H]1NC(=O)[C@H](CCCCN)NC(=O)[C@@H](Cc2ccc(C(N)=O)cc2)NC(=O)[C@H](Cc2ccc(O)cc2)NC(=O)[C@H](NC(=O)[C@@H](N)Cc2ccc(Cl)cc2)CSSC[C@@H](C(=O)N(C)[C@H](Cc2ccc(O)cc2)C(N)=O)NC1=O
B16: Compound 75: H-Cpa-[DCys-NMeTyr-DPhe(4-carbamoyl)-Lys-NMeThr-Cys]-DTyr-NH2 (peptide)
peptide: XXXXKXCX
HELM: PEPTIDE1{[N[C@@H](Cc1ccc(Cl)cc1)C(=O)[*:2]].[dC].[meY].[NC(=O)c1ccc(C[C@@H](N[*:1])C(=O)[*:2])cc1].K.[meT].C.[dY].[am]}$PEPTIDE1,PEPTIDE1,2:R3-7:R3$$$V2.0
SMILES: C[C@@H](O)[C@H]1C(=O)N[C@H](C(=O)N[C@H](Cc2ccc(O)cc2)C(N)=O)CSSC[C@@H](NC(=O)[C@@H](N)Cc2ccc(Cl)cc2)C(=O)N(C)[C@@H](Cc2ccc(O)cc2)C(=O)N[C@H](Cc2ccc(C(N)=O)cc2)C(=O)N[C@@H](CCCCN)C(=O)N1C

Biological target: somatostatin receptor type 2 (SSTR2) (UniProt P30874 1-369)
Assay: cell-based or functional assay

Sequence of somatostatin receptor type 2 (SSTR2) (P30874 whole entry): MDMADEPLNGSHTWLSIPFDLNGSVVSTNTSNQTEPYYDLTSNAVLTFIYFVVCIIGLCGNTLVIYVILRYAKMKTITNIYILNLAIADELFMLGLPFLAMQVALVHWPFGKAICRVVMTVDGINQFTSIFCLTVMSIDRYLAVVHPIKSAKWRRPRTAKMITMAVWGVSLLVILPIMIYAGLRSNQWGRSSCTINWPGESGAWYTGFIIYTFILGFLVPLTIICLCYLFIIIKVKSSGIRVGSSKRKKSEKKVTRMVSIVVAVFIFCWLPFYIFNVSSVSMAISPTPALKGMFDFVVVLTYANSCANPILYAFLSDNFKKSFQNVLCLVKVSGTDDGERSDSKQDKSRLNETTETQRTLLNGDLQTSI

| IC50 (PathHunter β-Arrestin, antagonist mode) [µM] | Binder |
| --- | --- |
| 0.00335 | B1 |
| 0.547 | B2 |
| 0.00365 | {2‑furoyl}-[Phe(4-Cl)][dC]Y[dPhe(4-CONH2)]K(Me)TC[dY]-NH2 (disulfide 2-7) [Compound 57: (Furan-2-carboxy)-Cpa-cyclo[D-Cys-Tyr-D-Phe(4-carbamoyl)-Lys(Nε-Me)-Thr-Cys]-D-Tyr-NH2] |
| > 1 | H-[Phe(4-Cl)][dC]Y[dPhe(4-CONH2)]K(Me)T[Dap][dY]-NH2 (bridge 2-7 via thiocarbamate) [Compound 63: H-Cpa-cyclo[DCys-Tyr-DPhe(4-CONH2)-Lys(Me)-Thr-Dap]-DTyr-NH2] |
| > 1 | B3 |
| 0.00232 | B4 |
| > 1 | B5 |
| 0.00577 | B6 |
| 0.4 | B7 |
| 0.0133 | B8 |
| 0.00225 | B9 |
| 0.00236 | {CH3O2C(CH2)2(CO)}-[Phe(4-Cl)][dC]Y[dPhe(4-CONH2)]K(Me)TC[dY]-NH2 (disulfide 2-7) [Compound 58: CH3O2C(CH2)2(CO)-Cpa-cyclo[D-Cys-Tyr-D-Phe(4-carbamoyl)-Lys(Nε-Me)-Thr-Cys]-D-Tyr-NH2] |
| 0.00679 | B10 |
| > 1 | B11 |
| > 1 | H-[Phe(4-Cl)][dC]Y[dPhe(4-CONH2)]KT[Dap][dY]-NH2 (bridge 2-7 via thiocarbamate) [Compound 62: H-Cpa-cyclo[DCys-Tyr-DPhe(4-CONH2)-Lys-Thr-Dap]-DTyr-NH2] |
| 0.0391 | B12 |
| 0.159 | B13 |
| > 1 | H-[Phe(4-Cl)][Dap]Y[dPhe(4-CONH2)]KTC[dY]-NH2 (bridge 2-7 via thiocarbamate) [Compound 61: H-Cpa-cyclo[Dap-Tyr-DPhe(4-CONH2)-Lys-Thr-Cys]-DTyr-NH2] |
| 0.0016 | B14 |
| > 1 | H-[Phe(4-Cl)][dDap]Y[dPhe(4-CONH2)]KTC[dY]-NH2 (bridge 2-7 via thiocarbamate) [Compound 60: H-Cpa-cyclo[DDap-Tyr-DPhe(4-CONH2)-Lys-Thr-Cys]-DTyr-NH2] |
| 0.0287 | B15 |
| > 1 | B16 |
